These results are taken from publication PMC13397619.

The chains are these.
B1: NLV2 TCR alpha chain (CDR3α only) (parent)
chain: AGPMKTSYDKVI
partner: MLVPMVATV

This test covers variants of B1. The test can be described thus: T-Switch: Jurkat TCRβ−/− cells expressing a CDR3 saturation-mutagenesis library, stained with two peptide-HLA-A*02:01 tetramers (original and novel peptide) plus anti-CD3, FACS-sorted into four gates, gDNA sequenced. The following applies: with HLA-A*02:01 with peptide … (NLV 3-1, the novel peptide), tetramers 1 µg/mL, 30 min on ice, SP, DP and SW gates expanded about 10 days between rounds ('two to three rounds of selection' in the Methods), gate SW: higher = more of the variant in the gate that binds the novel peptide and not the original one = switched binding. Fold enrichment of the CDR3 variant in one FACS gate of a two-tetramer stain, unresolved parent, parent is a CDR3 fragment, scale: fold enrichment, numbering: sequential-on-construct, sequence starts at 1.
As for […] (CDR3 as printed); V11K derived by comparing it with the table's wild-type CDR3 AGPMKTSYDKVI, the enrichment is 0.
Then […] (CDR3 as printed); G2Q derived by comparing it with the table's wild-type CDR3 AGPMKTSYDKVI, with 0; and […] (CDR3 as printed); D9C derived by comparing it with the table's wild-type CDR3 AGPMKTSYDKVI, with 0.
[…] (CDR3 as printed); P3Y derived by comparing it with the table's wild-type CDR3 AGPMKTSYDKVI: the enrichment is 0.
Then […] (CDR3 as printed); S7Y derived by comparing it with the table's wild-type CDR3 AGPMKTSYDKVI, with 0.
For […] (CDR3 as printed); K10I derived by comparing it with the table's wild-type CDR3 AGPMKTSYDKVI, the enrichment amounted to 0.
[…] (CDR3 as printed); K10R derived by comparing it with the table's wild-type CDR3 AGPMKTSYDKVI: the enrichment worked out at 0.
Then […] (CDR3 as printed); I12V derived by comparing it with the table's wild-type CDR3 AGPMKTSYDKVI, with 0.
Consider […] (CDR3 as printed); K5Q derived by comparing it with the table's wild-type CDR3 AGPMKTSYDKVI, for which the enrichment came out at 0.
As for […] (CDR3 as printed); I12P derived by comparing it with the table's wild-type CDR3 AGPMKTSYDKVI, the enrichment was 0.
Consider […] (CDR3 as printed); M4D derived by comparing it with the table's wild-type CDR3 AGPMKTSYDKVI, for which the enrichment is 0.
As to […] (CDR3 as printed); K5L derived by comparing it with the table's wild-type CDR3 AGPMKTSYDKVI, the enrichment was 0.
Then […] (CDR3 as printed); A1D derived by comparing it with the table's wild-type CDR3 AGPMKTSYDKVI, with 0; and […] (CDR3 as printed); K5N derived by comparing it with the table's wild-type CDR3 AGPMKTSYDKVI, with 0; and […] (CDR3 as printed); D9N derived by comparing it with the table's wild-type CDR3 AGPMKTSYDKVI, with 0.
In the case of […] (CDR3 as printed); K10M derived by comparing it with the table's wild-type CDR3 AGPMKTSYDKVI it was 0.
Then […] (CDR3 as printed); S7W derived by comparing it with the table's wild-type CDR3 AGPMKTSYDKVI, with 0.
For the variant […] (CDR3 as printed); A1H derived by comparing it with the table's wild-type CDR3 AGPMKTSYDKVI, the enrichment came out at 0.
Then […] (CDR3 as printed); G2P derived by comparing it with the table's wild-type CDR3 AGPMKTSYDKVI, with 0.
Then […] (CDR3 as printed); Y8I derived by comparing it with the table's wild-type CDR3 AGPMKTSYDKVI, with 0.
[…] (CDR3 as printed); K5D derived by comparing it with the table's wild-type CDR3 AGPMKTSYDKVI: the enrichment came to 0.
As to […] (CDR3 as printed); Y8G derived by comparing it with the table's wild-type CDR3 AGPMKTSYDKVI, the enrichment was 0.
Then […] (CDR3 as printed); S7D derived by comparing it with the table's wild-type CDR3 AGPMKTSYDKVI, with 0.
In the case of […] (CDR3 as printed); D9Y derived by comparing it with the table's wild-type CDR3 AGPMKTSYDKVI it was 0; in that of […] (CDR3 as printed); I12D derived by comparing it with the table's wild-type CDR3 AGPMKTSYDKVI, 0.
Then […] (CDR3 as printed); G2N derived by comparing it with the table's wild-type CDR3 AGPMKTSYDKVI, with 0.
Regarding […] (CDR3 as printed); M4Q derived by comparing it with the table's wild-type CDR3 AGPMKTSYDKVI, the enrichment was 0.
Consider […] (CDR3 as printed); T6R derived by comparing it with the table's wild-type CDR3 AGPMKTSYDKVI, for which the enrichment was determined as 0.
Then […] (CDR3 as printed); Y8R derived by comparing it with the table's wild-type CDR3 AGPMKTSYDKVI, with 0; and […] (CDR3 as printed); M4E derived by comparing it with the table's wild-type CDR3 AGPMKTSYDKVI, with 0; and […] (CDR3 as printed); T6E derived by comparing it with the table's wild-type CDR3 AGPMKTSYDKVI, with 0.
With […] (CDR3 as printed); A1P derived by comparing it with the table's wild-type CDR3 AGPMKTSYDKVI, the enrichment worked out at 0.
In the case of […] (CDR3 as printed); T6G derived by comparing it with the table's wild-type CDR3 AGPMKTSYDKVI it was 0.
In the case of […] (CDR3 as printed); A1K derived by comparing it with the table's wild-type CDR3 AGPMKTSYDKVI it was 1.01.
Then […] (CDR3 as printed); D9P derived by comparing it with the table's wild-type CDR3 AGPMKTSYDKVI, with 0.
In the case of […] (CDR3 as printed); K5C derived by comparing it with the table's wild-type CDR3 AGPMKTSYDKVI, the enrichment was 0.
In the case of […] (CDR3 as printed); S7T derived by comparing it with the table's wild-type CDR3 AGPMKTSYDKVI it was 0.
With […] (CDR3 as printed); P3K derived by comparing it with the table's wild-type CDR3 AGPMKTSYDKVI, the enrichment was determined as 0.
Then […] (CDR3 as printed); T6L derived by comparing it with the table's wild-type CDR3 AGPMKTSYDKVI, with 0; and […] (CDR3 as printed); K5F derived by comparing it with the table's wild-type CDR3 AGPMKTSYDKVI, with 0.
In the case of […] (CDR3 as printed); I12E derived by comparing it with the table's wild-type CDR3 AGPMKTSYDKVI it was 0; in that of […] (CDR3 as printed); M4C derived by comparing it with the table's wild-type CDR3 AGPMKTSYDKVI, 0.
Consider […] (CDR3 as printed); M4L derived by comparing it with the table's wild-type CDR3 AGPMKTSYDKVI, for which the enrichment was found to be 0.
Then […] (CDR3 as printed); A1L derived by comparing it with the table's wild-type CDR3 AGPMKTSYDKVI, with 0.
In the case of […] (CDR3 as printed); Y8M derived by comparing it with the table's wild-type CDR3 AGPMKTSYDKVI it was 0; in that of […] (CDR3 as printed); V11T derived by comparing it with the table's wild-type CDR3 AGPMKTSYDKVI, 0.
In the case of […] (CDR3 as printed); G2F derived by comparing it with the table's wild-type CDR3 AGPMKTSYDKVI it was 0; in that of […] (CDR3 as printed); K10L derived by comparing it with the table's wild-type CDR3 AGPMKTSYDKVI, 0; in that of […] (CDR3 as printed); G2E derived by comparing it with the table's wild-type CDR3 AGPMKTSYDKVI, 0.
For […] (CDR3 as printed); T6N derived by comparing it with the table's wild-type CDR3 AGPMKTSYDKVI, the enrichment is 0.
Then […] (CDR3 as printed); I12Y derived by comparing it with the table's wild-type CDR3 AGPMKTSYDKVI, with 0; and […] (CDR3 as printed); K5T derived by comparing it with the table's wild-type CDR3 AGPMKTSYDKVI, with 0.
Consider […] (CDR3 as printed); P3S derived by comparing it with the table's wild-type CDR3 AGPMKTSYDKVI, for which the enrichment was 0.
Then […] (CDR3 as printed); M4N derived by comparing it with the table's wild-type CDR3 AGPMKTSYDKVI, with 0; and […] (CDR3 as printed); I12L derived by comparing it with the table's wild-type CDR3 AGPMKTSYDKVI, with 0.
In the case of […] (CDR3 as printed); V11G derived by comparing it with the table's wild-type CDR3 AGPMKTSYDKVI it was 0.
Take […] (CDR3 as printed); V11W derived by comparing it with the table's wild-type CDR3 AGPMKTSYDKVI: the enrichment came to 0.
In the case of […] (CDR3 as printed); D9K derived by comparing it with the table's wild-type CDR3 AGPMKTSYDKVI it was 0.
Then […] (CDR3 as printed); I12R derived by comparing it with the table's wild-type CDR3 AGPMKTSYDKVI, with 0; and […] (CDR3 as printed); P3E derived by comparing it with the table's wild-type CDR3 AGPMKTSYDKVI, with 0.
Then […] (CDR3 as printed); Y8W derived by comparing it with the table's wild-type CDR3 AGPMKTSYDKVI, with 0; and […] (CDR3 as printed); A1N derived by comparing it with the table's wild-type CDR3 AGPMKTSYDKVI, with 0.
Regarding […] (CDR3 as printed); G2A derived by comparing it with the table's wild-type CDR3 AGPMKTSYDKVI, the enrichment worked out at 0.
Then […] (CDR3 as printed); V11M derived by comparing it with the table's wild-type CDR3 AGPMKTSYDKVI, with 0.
In the case of […] (CDR3 as printed); G2C derived by comparing it with the table's wild-type CDR3 AGPMKTSYDKVI it was 0; in that of […] (CDR3 as printed); G2I derived by comparing it with the table's wild-type CDR3 AGPMKTSYDKVI, 0.
On to […] (CDR3 as printed); I12F derived by comparing it with the table's wild-type CDR3 AGPMKTSYDKVI, for which the enrichment amounted to 0.
Regarding […] (CDR3 as printed); A1T derived by comparing it with the table's wild-type CDR3 AGPMKTSYDKVI, the enrichment is 0.
In the case of […] (CDR3 as printed); M4F derived by comparing it with the table's wild-type CDR3 AGPMKTSYDKVI it was 0.
In the case of […] (CDR3 as printed); P3V derived by comparing it with the table's wild-type CDR3 AGPMKTSYDKVI, the enrichment is 0.657.
